The numbers were not newly measured in article PMC2646799, which cites them from elsewhere.

The data set addresses histone H3 acetyl-K9 peptide (Homo sapiens) (UniProt P68431).

As a reminder, the Kd is the free concentration of one partner at which half of the binding sites on the other are occupied at equilibrium, for simple one-to-one binding. On to Polybromo-1 BrD3 (from UniProt Q86U86), for which the Kd is 1000 nM.
